# US20130078247A1 (Boehringer Ingelheim, published 2013)
# Where a chain is given by its changes, count along the chain named.
# T1: recombinant human DLL1 (Alexis) (human, UniProt O00548 18-545, limits assumed)
# T1 construct: also called hDLL1; rhDLL1
# T1 sequence (looked up): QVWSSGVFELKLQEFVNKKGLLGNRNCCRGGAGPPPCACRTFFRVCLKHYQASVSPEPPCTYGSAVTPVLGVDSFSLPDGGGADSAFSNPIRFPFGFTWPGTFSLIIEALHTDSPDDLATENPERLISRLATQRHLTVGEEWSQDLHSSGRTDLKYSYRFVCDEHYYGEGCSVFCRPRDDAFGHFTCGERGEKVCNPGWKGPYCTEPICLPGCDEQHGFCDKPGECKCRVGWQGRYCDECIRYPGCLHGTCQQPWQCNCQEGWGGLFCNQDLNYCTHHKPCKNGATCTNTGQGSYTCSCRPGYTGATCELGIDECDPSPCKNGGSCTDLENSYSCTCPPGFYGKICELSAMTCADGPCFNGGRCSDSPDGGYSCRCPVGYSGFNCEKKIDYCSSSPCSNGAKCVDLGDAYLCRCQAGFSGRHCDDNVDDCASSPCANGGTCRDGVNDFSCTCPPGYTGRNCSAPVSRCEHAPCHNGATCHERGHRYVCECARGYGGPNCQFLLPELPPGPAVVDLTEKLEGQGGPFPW
# T2: human DLL1 (human, UniProt O00548 18-545, limits assumed)
# T2 construct: also called hDLL1; rhDLL1
# T2 sequence (looked up): T1 sequence (looked up)
# B1: DLLBII129D08 (VHH)
# VHH: EVQLVESGGGLVQAGGSLRLSCAASGRTFSSYAMAWYRQAPGKEREYVAAIRWSGGTAYYADSVQGRFTISRDNAKNTVYLQMNSLKPEDTAVYYCANRAPDTRLEPYLYDYWGQGTQVTVSS
# notes: not shown: C-terminal c-myc and His6 tags
# B2: DLLBII129B05 (VHH)
# VHH: B1 VHH with E106A, L109E, Y112H
# notes: as for B1
# B3: DLLBII129E11 (VHH)
# VHH: B1 VHH with E106R
# notes: as for B1
# B4: DLLBII104G01 (VHH)
# VHH: EVQLVESGGGLVQAGGSLRLSCAASGFTFDDYAIGWFRQAPGKEREGVSCISSSDGSTYYADSVKGRFTISSDNAKNTVYLQMNSLKPEDTAVYYCATAWCDSSWYRSFVGYWGQGTQVTVSS
# notes: also called 104G1; DLLBII104G1; not shown: C-terminal c-myc and His6 tags
# B5: DLLBII115A05 (VHH)
# VHH: EVQLVESGGGLVQPGGSLRLSCAASGFTFGSYDMSWVRRSPGKGPEWVSSINSGGGSTYYADFVKGRFTISRDNAKNTLYLQMNSLKPEDTAVYYCAADRYIRARQGDYWGAYEYDYWGQGTQVTVSS
# notes: also called 115A5; DLLBII115A5; not shown: C-terminal c-myc and His6 tags
# B6: DLLBII56A09 (VHH, not shown: small tags and cut ends)
# VHH: EVQLVESGGGLVQPGGSLRLSCAASGFTFDDYAIGWFRQAPGKEPEGISCISSSGGITYYADSVKGRFTTSRDNAKNTVYLQMNSLKPEDTAVYYCATPGIAACRGIHYTGQGTQVTVSS
# B7: DLLBII62C11 (VHH)
# VHH: EVQLMESGGGLVQPGGSLRLSCVAAGFTFSNYYMSWVRQAPGKGLEWVSVISPDGSNTYYADTVKGRFTISRGNAKNTLFLQMTGLKSEDAAVYYCARGSGSWGVHGQGTQVTVSS
# notes: as for B1
# B8: DLLBII101G08 (VHH)
# VHH: B1 VHH with Y37F, Y47F, P101A, E106G, L109E
# notes: also called 101G8; DLLBII101G8; not shown: C-terminal c-myc tag and His6 tag
# B9: DLLBII129B05 (VHH)
# VHH: B1 VHH with E106A, L109E, Y112H
# notes: not shown: C-terminal c-myc tag and (His)6 tag
# B10: DLLBII129E11 (VHH)
# VHH: B1 VHH with E106R
# notes: as for B9
# B11: DLLBII115A05 (VHH)
# VHH: B5 VHH
# notes: also called 115A5; DLLBII115A5; not shown: C-terminal c-myc tag and His6 tag
# B12: DLLBII96C03 (VHH)
# VHH: EVQLVESGGGLVQPGGSLRLSCAASGFTFGNYDMSWVRQAPGKGPEWVSAINSGGGDTYYADSVKGRFTISRDNAKNTLYLQMNSLKPEDTAVYYCATPRGWGPTGPHEYGYWGQGTQVTVSS
# notes: also called 96CO3; 96C3; not shown: C-terminal c-myc and His6 tags
# B13: DLLBII015 (VHH)
# VHH: B5 VHH with F29I, S50A, F63Y, R103W, D108E, E114A
# notes: as for B1
# B14: DLLBII136C07 (VHH)
# VHH: B5 VHH with F63Y, R103W, D108E
# notes: as for B1
# B15: DLLBII17F10 (VHH)
# VHH: EVQLVESGGGLVQAGGSLRLSCASSGRTLLNYAMGWFRQAPGKEREFVSGINWSGGSTYYADSVKGRFTISRDNAENTVYLHMNSLKPEDTAVYYCAAAHDNYWFTDDSLGRGLKYWGQGTQVTVSS
# notes: as for B1
# B16: DLLBII129D08 (VHH)
# VHH: B1 VHH
# notes: as for B9
# Key:
# [1] = target: T3, recombinant human Jagged-1 (Alexis) (human, UniProt P78504 34-1067, limits assumed); assay: rhDLL1/rhJAG1 binding ELISA
# T3 construct: also called hJagged-1; hJAG1
# [2] = target: T1, recombinant human DLL1 (Alexis); assay: rhDLL1/rhJAG1 binding ELISA
# [3] = target: T4, mouse DLL4, full length, overexpressed on CHO or HEK293 cells (mouse, UniProt Q9JI71 27-686); assay: periplasmic extract; FMAT, Notch1/Fc on CHO-mDLL4
# T4 construct: whole, on cells; also called CHO-mDLL4; CHO-mDII4
# T4 sequence (Q9JI71 27-686): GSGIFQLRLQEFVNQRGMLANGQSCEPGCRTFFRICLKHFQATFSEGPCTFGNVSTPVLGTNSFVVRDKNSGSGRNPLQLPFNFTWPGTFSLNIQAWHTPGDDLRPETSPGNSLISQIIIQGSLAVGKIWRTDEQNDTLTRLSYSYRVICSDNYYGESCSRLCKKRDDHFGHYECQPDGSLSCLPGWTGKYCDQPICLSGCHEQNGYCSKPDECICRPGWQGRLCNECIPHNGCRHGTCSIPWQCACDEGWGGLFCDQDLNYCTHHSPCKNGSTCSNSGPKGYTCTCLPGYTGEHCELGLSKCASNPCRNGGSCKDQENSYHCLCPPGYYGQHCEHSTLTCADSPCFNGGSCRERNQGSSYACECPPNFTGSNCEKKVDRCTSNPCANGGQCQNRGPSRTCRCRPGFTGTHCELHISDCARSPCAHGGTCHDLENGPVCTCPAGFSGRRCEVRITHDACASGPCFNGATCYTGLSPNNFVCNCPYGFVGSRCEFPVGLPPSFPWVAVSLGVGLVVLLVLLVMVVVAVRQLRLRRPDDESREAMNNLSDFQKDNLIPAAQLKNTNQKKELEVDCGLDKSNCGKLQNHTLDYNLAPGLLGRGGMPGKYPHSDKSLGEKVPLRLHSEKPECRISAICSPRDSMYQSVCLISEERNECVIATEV
# Text: (§1) All calculations are based on the FL1_total signal which comprises the average of the fluorescence per well times the number of counts per well.
# [4] = target: T5, human DLL4, full length, overexpressed on CHO or HEK293 cells (human, UniProt Q9NR61 27-685); assay: cell-based or functional assay
# [5] = target: T6, recombinant human DLL4 extracellular domain, C-terminally His-tagged (R&D Systems) (human, UniProt Q9NR61 25-522, biotinylated in the competition assays (sites not given)); assay: cell-based or functional assay
# [6] = target: T5, human DLL4, full length, overexpressed …; assay: periplasmic extract; FMAT, Notch1/Fc on CHO-hDLL4
# Text: as §1
# [7] = target: T7, recombinant human DLL4 (human, UniProt Q9NR61 25-522); assay: cell-based or functional assay
# [8] = target: T2, human DLL1; assay: binding ELISA, coated hDLL1
# Method: (§2) Absence of binding to homologous ligands human DLL1 and human Jagged-1 is assessed via solid phase binding assay (ELISA). In brief, human DLL1 (Alexis, San Diego, Calif., USA) and human Jagged-1 (Alexis, San Diego, Calif., USA) are coated overnight at 4° C. at 1 μg/mL in a 96-well MaxiSorp plate (Nunc, Wiesbaden, Germany). Wells are blocked with a casein solution (1% in PBS). VHHs are applied as dilution series and binding is detected using a mouse anti-myc (Roche) and an anti-mouse-AP conjugate (Sigma, St. Louis, Mo., USA).
# [9] = target: T8, recombinant mouse DLL4 (mouse, UniProt Q9JI71 27-532); assay: ProteOn off-rate screen, periplasmic extract, mDLL4 on chip
# T8 construct: extracellular domain; also called rmDLL4; mDLL4; not shown: C-terminal His tag
# T8 sequence (Q9JI71 27-532): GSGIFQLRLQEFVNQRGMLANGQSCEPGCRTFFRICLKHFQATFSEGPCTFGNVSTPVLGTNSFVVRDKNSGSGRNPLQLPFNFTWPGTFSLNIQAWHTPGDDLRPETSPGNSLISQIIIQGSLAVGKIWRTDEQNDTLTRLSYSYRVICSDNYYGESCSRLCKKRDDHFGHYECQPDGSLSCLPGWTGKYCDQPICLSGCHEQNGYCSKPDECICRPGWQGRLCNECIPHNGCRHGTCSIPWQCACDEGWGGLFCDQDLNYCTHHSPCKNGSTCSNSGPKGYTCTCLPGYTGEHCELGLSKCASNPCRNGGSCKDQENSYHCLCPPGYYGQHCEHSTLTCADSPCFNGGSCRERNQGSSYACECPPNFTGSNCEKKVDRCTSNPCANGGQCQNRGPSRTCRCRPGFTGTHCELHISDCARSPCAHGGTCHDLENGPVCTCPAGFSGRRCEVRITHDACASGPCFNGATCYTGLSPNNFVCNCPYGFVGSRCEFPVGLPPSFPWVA
# Method: (§3) In a first cycle, amino acid substitutions are introduced randomly in both framework (FW) and complementary determining regions (CDR) using the error-prone PCR method. […] After a polish step, PCR products are inserted via unique restriction sites into a vector designed to facilitate phage display of the VHH library. […] No selections on murine DLL4 are included as (conservation of) cross-reactivity is assessed at the screening level. Individual mutants are produced as recombinant protein using an expression vector derived from pUC119, which contains the LacZ promoter, a resistance gene for ampicillin, a multiple cloning site and an ompA leader sequence (pAX50). E. coli TG1 cells are transformed with the expression vector library and plated on agar plates (LB+Amp+2% glucose). Single colonies are picked from the agar plates and grown in 1 mL 96-deep-well plates. VHH expression is induced by adding IPTG (1 mM). Periplasmic extracts (in a volume of ˜80 uL) are prepared according to standard methods and screened for binding to recombinant human and mouse DII4 in a ProteOn (BioRad, Hercules, Calif., USA) off-rate assay. […] Periplasmic extract of affinity matured clones is diluted 1/10 and injected across the “analyte channels” A1-A6. An average off-rate is calculated of the wild type clones present in the plate and served as a reference to calculate off-rate improvements.
# [10] = target: T9, human Jagged-1 (human, UniProt P78504 34-1067, limits assumed); assay: binding ELISA, coated hJagged-1
# T9 construct: also called hJag-1; hJAG1
# Method: as §2
# [11] = target: T7, recombinant human DLL4; assay: ProteOn off-rate screen, periplasmic extract, hDLL4 on chip
# Method: as §3
# [12] = target: T6, recombinant human DLL4 extracellular …; assay: periplasmic extract; hDLL4 ELISA
# [13] = target: T10, recombinant mouse DLL4 extracellular domain, C-terminally His-tagged (R&D Systems) (mouse, UniProt Q9JI71 27-525); assay: binding ELISA on coated rmDLL4
# T10 construct: range 1-525; also called rmDLL4; mDLL4; not shown: C-terminal His tag
# T10 sequence (Q9JI71 27-525 limits assumed): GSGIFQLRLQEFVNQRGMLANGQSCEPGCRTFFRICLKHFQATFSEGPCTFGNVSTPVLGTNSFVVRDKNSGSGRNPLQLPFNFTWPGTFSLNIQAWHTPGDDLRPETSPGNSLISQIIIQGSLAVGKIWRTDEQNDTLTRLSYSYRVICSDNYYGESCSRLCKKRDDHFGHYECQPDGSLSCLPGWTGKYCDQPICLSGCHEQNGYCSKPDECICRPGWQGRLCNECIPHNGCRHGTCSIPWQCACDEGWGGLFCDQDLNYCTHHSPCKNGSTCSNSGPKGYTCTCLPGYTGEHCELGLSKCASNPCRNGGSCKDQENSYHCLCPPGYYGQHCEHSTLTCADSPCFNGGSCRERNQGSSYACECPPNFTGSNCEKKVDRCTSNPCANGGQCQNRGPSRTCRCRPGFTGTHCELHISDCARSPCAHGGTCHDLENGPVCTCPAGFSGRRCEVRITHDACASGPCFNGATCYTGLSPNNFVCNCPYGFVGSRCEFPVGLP
# Method: In order to determine cross-reactivity to mouse DII4 a binding ELISA is performed. […] Wells are blocked with a casein solution (1% in PBS). VHHs are applied as dilution series and binding is detected using a mouse anti-myc (Roche) and an anti-mouse-AP conjugate (Sigma, St Louis, Mo., USA) (FIG. 7).
# [14] = target: T6, recombinant human DLL4 extracellular …; assay: periplasmic extract; hDLL4/hNotch1 AlphaScreen
# Method: To this mixture, the acceptor beads and the streptavidin donor beads are added and further incubated for 1 hour at room temperature. Fluorescence is measured by reading plates on the Envision Multilabel Plate reader (Perkin Elmer, Waltham, Mass., USA) using an excitation wavelength of 680 nm and an emission wavelength of 520 nm.
binder,measurement,setting,value
B1,binding result,[1],no binding
same,binding result,[2],no binding
B2,binding result,[1],no binding
same,binding result,[2],no binding
B3,binding result,[1],no binding
same,binding result,[2],no binding
B4,% inhibition,[3],86%
same,"IC50, DLL4/Notch1 reporter assay (luciferase; co-culture with HEK293-hDII4)",[4],0.964 µM
same,"concentration giving complete inhibition, HUVEC proliferation assay",[5],10 µM
same,% inhibition,[6],94%
B5,% inhibition,[3],84%
same,"IC50, DLL4/Notch1 reporter assay (luciferase; co-culture with HEK293-hDII4)",[4],1.74 µM
same,"concentration giving complete inhibition, HUVEC proliferation assay",[5],10 µM
same,% inhibition,[6],74%
B6,"IC50 (nM) in the DLL4 proliferation assay (HUVEC, experiment 1)",[7],11 nM
same,"IC50 (nM) in the DLL4 proliferation assay (HUVEC, experiment 2)",[7],6.8 nM
B7,% inhibition,[3],71%
same,"IC50, DLL4/Notch1 reporter assay (luciferase; co-culture with HEK293-hDII4)",[4],4.66 µM
same,% inhibition,[6],74%
B8,binding result,[8],no binding
same,fold (off-rate improvement over DLLBII101G08),[9],1 fold
same,binding result,[10],no binding
same,fold (off-rate improvement over DLLBII101G08),[11],1 fold
same,"IC50 (nM) in the DLL4 proliferation assay (HUVEC, experiment 1)",[7],401 nM
same,"IC50 (nM) in the DLL4 proliferation assay (HUVEC, experiment 2)",[7],112 nM
B9,binding result,[8],no binding
same,fold (off-rate improvement over DLLBII101G08),[9],20 fold
same,binding result,[10],no binding
same,fold (off-rate improvement over DLLBII101G08),[11],24 fold
B10,binding result,[8],no binding
same,fold (off-rate improvement over DLLBII101G08),[9],26 fold
same,binding result,[10],no binding
same,fold (off-rate improvement over DLLBII101G08),[11],28 fold
B11,binding result,[8],no binding
same,binding result,[10],no binding
same,"IC50 (nM) in the DLL4 proliferation assay (HUVEC, experiment 1)",[7],10000 nM
B12,% inhibition,[3],83%
same,"IC50, DLL4/Notch1 reporter assay (luciferase; co-culture with HEK293-hDII4)",[4],5.16 µM
same,% inhibition,[6],75%
B13,binding result,[1],no binding
same,binding result,[2],no binding
B14,binding result,[1],no binding
same,binding result,[2],no binding
B15,% inhibition,[12],98%
same,binding result,[13],no binding (tested: 2.5e-7 M)
same,% inhibition,[14],88%
B16,binding result,[8],no binding
same,fold (off-rate improvement over DLLBII101G08),[9],35 fold
same,binding result,[10],no binding
same,fold (off-rate improvement over DLLBII101G08),[11],38 fold
